Measurements taken from the NTF2 design screens of Basanta et al. (2020).

Assay: protease stability score; higher = more stable; yeast display proteolysis, trypsin and chymotrypsin;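 further: relative to predicted unfolded state with 0 unfolded-like and 1 meaning tenfold more protease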

Row | Sequence | protease stability score
1 | DERQHHAENFHELFFRWVETGDWENQRELADPNMRVDLVVNGVELHDHGMDSFTKRLHELRLHHLDIRSVHYVNGRIDSDIRVDGVIDGRRIDTHMRLHLRVINGKMREIRIQID | 1.33
2 | REDDERIDEMVELIFHWEQTGDEEKVYNNMDPHVRIDYNGRELHGWKKFTEELRLIYEEMRLKHIHISHQTIQGEKAIVHVELEGQVGDKRYIHRREIIVLKIDGKWIIKMVRFV | 1.49
3 | SEDHEAAHEVIREWEKVHKTGDEHIFTQLLDPHMRIEIGDKRFHGRDEAVTHFRENLTHWRIHRMEMEDVNSQGEYIIYHVQNFVRINGKVVILDLTIIILKVDGRWVIHSIHIK | 1.24
4 | SEEEELEERLTRYWLHAFWTGDWEHLKEMADPDARHRLHFENHTESVHGREYLVLIYVRIIRNLGFKHLEIDHVRVVDGVFRIHGILEVNGRKQRVHIIVVIVNGRLRELVLIFG | 1.41
5 | DELEELLQRAIKMFKDTNETGDEETLEKLLDPNVRYQVGDKEFHGREAIHVIFRRADHWKEMRIRSFRVYDGRAELDVEEVIFYNGVEIRTRTRIHFRKVDGRWYVHSIEIS | 1.53
6 | SEDEEIFRIALHILIYTMKTGDEKMLEENFDPNTKIRVGDKEFVGREELRHWFEHLRPKDFKLRDISTQGEKIRIIGHSIGEVDGREVRYDVEMDLHKVDGRWRMTHERIH | 1.16
7 | DESKESARSFEDLLQEVRRTGDERKLVNLIDPHVKININGKIFHGWEDLEREFHRIKNIRFHVERMRVVGDKIDVRGTLHVDGQTVDTEIDVYKIDGRWAIESLRIG | 1.43
8 | HEEEEIVHRFVEDWFRHLKTGDFRSLFQLLDPHTRTDINGKSIHGRDTIMTEIIENMIRLGVNHMEVRIHHISVVDGQAHIDIWLIIRVNGKEQAHHVHILAQKINGKWFLKDIRFE | 1.5
9 | SEHEEVASRVTTEIIHNLLTGDWQRTTELMDPNTKLDVNGQHHHGWELYHKVLREWHEELRVHDMKEHDLKVIDGVAFSNMRVDIEINGVRFETEIRIIVVVVNGRIKSISFESK | 0.771
10 | DEEHRDSEEMTRKFLHNFITGNEHILEDLLDPHVRTDVDGREFIGWELAFKAFREFLERLGFDHIRHRDMKLHVVGNKVTSVITNNIQVGDKEHELRIILINRKIDGKWSVTEVRIHVK | 1.25
11 | DEDEKYMQEFLERLWRDLYTGDEESLTRRMDPRTRVDINGVDIHGMERVTEHIKHLVDRADHIELIIHTVNNVDGRAHNDGILVIKVNGREIRIETHFVLLKVDGRWRIQSEEYR | 0.399
12 | DEDERLLRDHLKLFQDAVRTGDEEVLSELLDPNVRLHIGDKTIHGREIVIDILRTEMRHLGVDYDETHLHHINIQGEWVHLHTELRLKVNGQRITLWTRLYLYKIDGKWIVTQIQLH | 2.3
13 | DEERDHLLEISQRIIHSWVTGDWKLFARLIDPHARLIFHFENVDLHYHGREQVVTFIIEMRIQHIDIRRYTVQGNKVHIDGHQKIEIGDKSIRTDSEMNSIIVNGKLHETFLIFK | 1.45
14 | DEEEEELKQHLHEILHSIMTGDWRSLRHLIDPNVRLDIGDKTYHGREDFLTWVKHLIDKIPNVKFEIKHIRIVGEKVIMNIVVKINGVEHTRHLIADKIDGKWFISSTEVH | 1.76
15 | DEQEEHVEKLVHLLLRRFKTGDEEFWRRLADPRTRLHVGDKHHHGRETFMKVFRHLIEDLGIDHRIEKHFEVINGVLHIHQIIVVDGQEFELRIHVFVVDGKVKSIDVSIHTR | 0.896
16 | SEDEDFMQKALKHDWELWETGDEEKIQKQADPHVRMDFDGVEYHGMELFSELLDRYLRKVKGLQIRLRHVHVKIINGQAIMDIDGTVNINGREIRLHIKIFNEKINGKWIHSSIRFEFR | 1.21
17 | TEDEKTAKHAKELLEHSIRTGDERLMERLLDPHALLIFDGRHIHGREDISRWYREIRIHHIHDENSEIQGDKLHLHMRIDGEYDGKRHELRVHWHSEKVNGRWSIRQVVLH | 1.44
18 | SDEETITREYIRILIKMMRTGDESTLTRLADPHVRVDINGKDLHGRESLVEEMHKLIRDLGVERIEVHFRNIHIQGEWIVIHIDLQIGDKRFEVRDIALKIDGRWVHKSIEIQ | 1.33

Row | Sequence | protease stability score
19 | REDEEITHKLLELLLTVIRTGDEQEMLNLLDPNTRHDVNGKHLHGRETAHRLFHEWSRHMRIHDLEIHDEKKIGNKVHIDGRLDGHIDGKREKIEVEFVIVKIDGRWVINSMTIK | 0.931
20 | DEEHEEYMDWAIIHLHDWLTGDEDHHNELADPNDRLELVIGDKRIERIGREEVTKQLHEFRKHMRVHRIEIKTRNVYNGKAHLHGIMHFRVGDKKYDVETHIVIVIINGVLKQVKIEIR | 0.773
21 | SEEEELMKKAMNTILESLKTGDFHTLENLVDPTARSDINGVILHGRELMHHEWERLLRELGVDVWEINEIHLRYVDGVVRIDIDGKVIIGDKSRTVHLRIIAHKIDGRWHIHSISFEVR | 1.83
22 | NMDEKLKRWAIEDHIKSDETGDENMKEHYMDPNVRIDIGDYELHGREAAIRDIRRIRHEMGVKVMHVEIEHVDVQGEKIRIHSRLIFEINGKEVRHETNIIYSKFDGRWVLKHESIK | 0.102
23 | DEEEDLQRHVADEFLHNLLTGNEHDIERLMDPNVKLIMDVNGVKLHFHGREQVLKLLREWRLDHWEVKRRHLVGDYAVLDGHQQGVIDGREVRTDSEIELRLYNGRMKEVTIRVR | 1.47
24 | DEDDEFMKRLAEEVIKNLHTGDWESLVHLMDPNALFEFDGVRNHGREQTDRFWEEVHERYPNVREKWDIHTIDVFNGRAKVDSRITFHFDGRDYVHKSEFHLIVFNGKVKSVHIHIR | 0.158
25 | SEKEKILEHFSELWYRLFRTGDEDTLHRMFDPDYRLIYGDKESHGRRLVWIMIAELRIHDWRLRRYHVQGDKAHFDVEVTGEFNGRREHNREEIIITVIDGRATEVEIRID | 0.54
26 | SEDEEHAEFFNRLLAESLMTGDWRTIANLLDPHVRVRVGDKQHHGREQVIHLLTKLLEDWGLERVHIHLRELRVINGRIHTRNELHVGDKTVDVKVHTRKIDGRWVIEEIEFR | 1.16
27 | HEEEREAHEMLRIIVHAIRTGDEELLMRYLDPDVRMILLVDGVEVHRIGREEASKLISELWHHIRLKDLKVREIDNQGEYSHVRTERDGEVNGKKNTLETELDIIVIDGRVTDVTIRIR | 1.1
28 | DEEKHEALRLTREFLKLFFTGDWEKLVRLIDPDAKVEIGNFESVGRENIAHLLHLLNEEWRINDMRIHSFTVVNGQVRMDTEINGIYGDKNYETRTEIESVVIDGRLKHFSIRER | 1.24
29 | SEDEENAKFVLHELYKADETGDERKQSHMMDPNVRIIVGDKEWVGRDEVVELMHEIRVHRVHIDDFRFQGDKIEVHGTTKGEFNGKRDVYHVHWLILKIDGRWRLQSLEVR | 1.11
30 | DDDEHEAKEAIHLWLELFMTGDEESHNRYMDPHVKTKFHFENHHEEYHGREKAIELMRMLGIKHVELRDVSTRVINGRVHIDMEIIVHFDGQEVRVIVLVIVIKINGQWILHEVVIIIK | 0.933
31 | SEEEERAEELVRLWEHDLKTGNEHLLRELMDPNTRLVVNGRHTHGREHAVNILLQFVEEWRIESVHLHRWRVIGDKIDLDIHIHGRINGVEHHIKSILVLVKINGKWLIHTIVIH | 1.02
32 | DEDHELAEDAIRWMSKIMLTGNEEHLHEMFDPDARIRFEGRSSHGWEEMIHFIRHIRIYIKESRIRDVRIQGDKIDVIGEVKIVIRIGDKIHEDTRDVYILVVKVDGRWTVRSFELV | 0.712
33 | DEREKREEEVLKIIIEITETGDWRIFMELADPHVKLDIGDKDMHGMEEAERLWELMHKLLGINHIRFRHLRIQGDKVDMEFNVTIGDKQVDTRRHVITVDGRLHEVHEEFK | 0.399
34 | DETHKDAERALEIEIRDFVTGDFKSMQRLADPNVKIEVGDKHWHGREEFEKLVKEVIDQFPNMRLDVRVTHWELQGEKLIMRTEVNEHFDGVTFKHETHIIIRKINGRWFLTSVHIQ | 1.36
35 | HEEEEKARYFLEIFFHHLLTGDWHILMELLDPDVRMEYDGKKFHGRESAIEIWRELRVTEIHIRHIHMFNGRVYADTEMRGIVNGVNTNTHSELYVRKYDGRWKVEFVVVH | 2.31
36 | DEEHEFMRKMSEEFVHIWLTGDEERLIKLLDPNAKLNIDGVEHHGWKEVHRYLKELKEELGVDHFHVRRITIRYIDGVAISIVHYESHINGRHHELEIHNVVNKIDGRWHLQSIHIHFH | 2.16
